Here are results for one variant from IntAct's records for PubMed 17159145.

First the molecules themselves.
B1: Epstein-Barr nuclear antigen leader protein (Epstein-Barr virus (strain B95-8) (HHV-4)), Q8AZK7 (parent)
chain: MGDRSEGPGPTRPGPPGIGPEGPLGQLLRRHRSPSPTRGGQEPRRVRRRVLVQQEEEVVSGSPSGPRGDRSEGPGPTRPGPPGIGPEGPLGQLLRRHRSPSPTRGGQEPRRVRRRVLVQQEEEVVSGSPSGPRGDRSEGPGPTRPGPPGIGPEGPLGQLLRRHRSPSPTRGGQEPRRVRRRVLVQQEEEVVSGSPSGPRGDRSEGPGPTRPGPPGIGPEGPLGQLLRRHRSPSPTRGGQEPRRVRRRVLVQQEEEVVSGSPSGPRGDRSEGPGPTRPGPPGIGPEGPLGQLLRRHRSPSPTRGGQEPRRVRRRVLVQQEEEVVSGSPSGPRGDRSEGPGPTRPGPPGIGPEGPLGQLLRRHRSPSPTRGGQEPRRVRRRVLVQQEEEVVSGSPSGPRGDRSEGPGPTRPGPPGIGPEGPLGQLLRRHRSPSPTRGGQEPRRVRRRVLVQQEEEVVSGSPSGPLRPRPRPPARSLREWLLRIRDHFEPPTVTTQRQSVYIEEEEDED

The variants in this test derive from B1. The settings on record: with hdac4_human HDAC4, P56524.
hdac4_human HDAC4, P56524, sequence (P56524 whole entry): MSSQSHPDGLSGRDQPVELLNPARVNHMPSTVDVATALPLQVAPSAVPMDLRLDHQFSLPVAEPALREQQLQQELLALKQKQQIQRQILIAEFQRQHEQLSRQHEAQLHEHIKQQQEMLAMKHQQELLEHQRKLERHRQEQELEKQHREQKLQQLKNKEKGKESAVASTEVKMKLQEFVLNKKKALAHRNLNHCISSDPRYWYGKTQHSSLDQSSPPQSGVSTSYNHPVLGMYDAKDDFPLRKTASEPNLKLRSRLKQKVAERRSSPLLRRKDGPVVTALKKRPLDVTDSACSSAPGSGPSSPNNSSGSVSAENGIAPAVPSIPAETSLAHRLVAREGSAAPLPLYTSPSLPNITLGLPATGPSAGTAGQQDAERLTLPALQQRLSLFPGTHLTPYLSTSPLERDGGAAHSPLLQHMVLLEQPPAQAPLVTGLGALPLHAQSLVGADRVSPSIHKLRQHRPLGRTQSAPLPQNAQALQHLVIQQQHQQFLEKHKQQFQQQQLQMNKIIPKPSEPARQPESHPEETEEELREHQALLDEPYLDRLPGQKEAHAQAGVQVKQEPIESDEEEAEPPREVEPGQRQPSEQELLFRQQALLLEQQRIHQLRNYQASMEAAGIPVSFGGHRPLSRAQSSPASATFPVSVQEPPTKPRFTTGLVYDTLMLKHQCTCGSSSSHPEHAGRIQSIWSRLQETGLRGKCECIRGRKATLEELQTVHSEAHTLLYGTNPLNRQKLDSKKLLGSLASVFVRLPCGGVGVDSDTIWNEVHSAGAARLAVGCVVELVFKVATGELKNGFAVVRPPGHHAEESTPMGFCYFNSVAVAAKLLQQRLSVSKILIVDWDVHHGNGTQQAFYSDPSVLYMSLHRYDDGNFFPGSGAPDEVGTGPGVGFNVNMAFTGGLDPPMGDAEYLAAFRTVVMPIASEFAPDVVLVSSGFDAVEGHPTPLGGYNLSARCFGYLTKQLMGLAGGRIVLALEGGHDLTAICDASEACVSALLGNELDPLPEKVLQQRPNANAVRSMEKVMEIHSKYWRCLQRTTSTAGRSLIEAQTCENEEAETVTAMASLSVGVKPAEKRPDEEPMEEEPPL
With S33A;S35A;S62A, the “effect of a mutation on the interaction” value was “decreasing interaction strength”.
